Test results as given in doi:10.1101/2021.02.07.430097.

Target: Ape4 (full length) of the Ape4-Nbr1 fusion protein (S. pombe)
Experiment: cryo-EM structure

Molecule	stoichiometry N	stoichiometry N (Nbr1-ZZ1 molecules per Ape4 dodecamer)
Ape4 (full length) of the Ape4-Nbr1 fusion protein (enzyme)	12	–
Nbr1(53-129) of the Ape4-Nbr1 fusion protein (domain or fragment) PTLRSSSVACNTCLKIIRNDSFHCTKCFDFDVCRDCYAKQAFLHPCPKPHFVLVRSSIPSVASLTCSVNSMSVSPQS	–	12
